Measurements reported in paper doi:10.1101/2024.03.13.584817 (bioRxiv, 2024).

Assays:
[1] = target: dROS1 ECR construct 1-9 (126-2113) (Drosophila, UniProt P13368 126-2113); assay: SPR
[2] = target: T1, dROS1 ECR construct 1-4 (126-1298), His-tagged (Drosophila, UniProt P13368 126-1298); assay: SPR
T1 sequence (looked up): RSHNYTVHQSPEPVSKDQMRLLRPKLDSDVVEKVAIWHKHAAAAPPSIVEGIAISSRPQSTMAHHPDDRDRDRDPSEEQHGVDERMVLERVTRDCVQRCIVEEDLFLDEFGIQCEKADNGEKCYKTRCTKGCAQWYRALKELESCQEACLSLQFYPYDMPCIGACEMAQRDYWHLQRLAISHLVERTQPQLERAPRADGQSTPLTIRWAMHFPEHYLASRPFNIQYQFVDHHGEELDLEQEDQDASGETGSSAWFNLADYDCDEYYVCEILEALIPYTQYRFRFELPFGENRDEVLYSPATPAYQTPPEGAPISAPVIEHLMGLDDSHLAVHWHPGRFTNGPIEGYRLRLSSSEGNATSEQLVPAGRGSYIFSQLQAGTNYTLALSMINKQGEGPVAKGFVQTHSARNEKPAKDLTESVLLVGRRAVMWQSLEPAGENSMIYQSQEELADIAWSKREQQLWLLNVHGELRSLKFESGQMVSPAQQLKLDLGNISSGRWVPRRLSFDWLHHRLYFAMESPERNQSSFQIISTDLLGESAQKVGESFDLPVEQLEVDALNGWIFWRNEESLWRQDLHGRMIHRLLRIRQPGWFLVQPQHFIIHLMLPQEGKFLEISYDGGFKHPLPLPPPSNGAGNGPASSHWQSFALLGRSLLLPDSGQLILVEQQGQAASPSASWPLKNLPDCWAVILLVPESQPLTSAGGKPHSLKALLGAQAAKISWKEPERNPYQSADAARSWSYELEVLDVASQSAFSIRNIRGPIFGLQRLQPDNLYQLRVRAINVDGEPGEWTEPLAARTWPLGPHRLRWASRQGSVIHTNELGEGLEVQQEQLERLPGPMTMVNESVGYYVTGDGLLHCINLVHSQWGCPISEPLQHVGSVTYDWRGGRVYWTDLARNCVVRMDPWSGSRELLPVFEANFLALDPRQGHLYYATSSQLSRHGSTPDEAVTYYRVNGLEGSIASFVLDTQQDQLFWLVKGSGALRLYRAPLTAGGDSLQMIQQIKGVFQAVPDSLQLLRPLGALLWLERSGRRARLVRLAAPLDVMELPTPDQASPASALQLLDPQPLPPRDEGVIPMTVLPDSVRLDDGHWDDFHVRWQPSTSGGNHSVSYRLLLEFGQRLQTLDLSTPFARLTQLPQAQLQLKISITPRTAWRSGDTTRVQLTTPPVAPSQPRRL

Kd [1]: 4.4 µM
Kd [2]: 3 to 5 µM
B1: BOSS ECR (102-510), His-tag cleaved (domain or fragment, Drosophila, UniProt P22815 102-510, looked up)
chain: GTTASLVPEICLNGLQLTVNSADEGTVIRKQEEFVKILEGDVVLSVLTKDPDSALFVINRVNQANLIMADFEIGIRAISIDNASLAENLLIQEVQFLQQCTTYSMGIFVDWELYKQLESVIKDLEYNIWPIPGTRAHLFPKVAHLLHQMPWGEKIASVEIATETLEMYNEFMEAARQEHMCLMHFKSDDNVYIMFGNKLASHFKENGTLFSVPTDRTDDEFLADLPNRAFVLMENEIDLSTAVELDATPTALDEILIGKSVLPSRVLSFAGSIIDLMNWLRGSLSKHCKRGEEHDLYVLESCFNFLNFIEDWRTSEYRQAHDTAEILSLLLMRKLGTAMNFQMYQKKVLTLDKITGESRTELREIASQNFVTNVTTYYHYNRDNHTSLELKTKFGQVFNCQYSAGDNRR
